Data: patent publication US12599645B2, “Antibodies which bind to lysophosphatidic acid receptor 1 (LPAR1)” (DJS ANTIBODIES LTD, priority 2021, dated 2026)

Key:
LPAR1 [1] = target: T1, LPAR1 (Homo sapiens, UniProt Q92633); assay: Function of humanised and affinity matured variants, method not stated; parameters: expressed in transfected cells; conditions: stated in words
[2] = tested on: renal fibrosis after UUO surgery; assay: Unilateral ureteral obstruction (UUO) efficacy model of renal fibrosis; type: in vivo, Hartley guinea pigs; conditions: Study 1; BMS-986020 30 mg/kg oral twice daily; antibody 20 mg/kg i.p.; Day 10
Experimental: Unilateral ureteral obstruction (UUO) is a well-characterized disease model for renal fibrosis. The UUO model encompasses key pathophysiological features of chronic kidney disease; tubular necrosis and inflammatory cell infiltration within a relatively short period.
Two unilateral ureteral obstruction (UUO) model efficacy studies were carried out in six-week old female Hartley guinea pigs. On Day 0, UUO surgery was performed. BMS-986020 was administered orally at a dose level of 30 mg/kg in a volume of 5 mL/kg twice daily at from Day −1 to 9. Isotype control and anti-LPAR1 antibody was intraperitoneally administered at a dose level of 6 mg/kg (low) or 20 mg/kg (high) in a volume of 10 mL/kg at Day −1, Day 0, Day 3 and Day 6. The viability, clinical signs, behaviour and individual body weight was monitored daily.
The animals were sacrificed at Day 10. The ligated left kidney and right kidney weight were measured at sacrifice.
Hydroxyproline is an amino acid, making up around 14% of collagen and acts as an important indicator of the severity of fibrosis. To quantify kidney hydroxyproline content, frozen posterior right section of left kidney samples were processed by an alkaline-acid hydrolysis method. AC buffer (2.2M acetic acid/0.48M citric acid) was added to the samples, followed by centrifugation to collect the supernatant. A standard curve of hydroxyproline was constructed with serial dilutions of trans-4-hydroxy-L-proline (Sigma-Aldrich, USA) starting at 16 μg/mL. The prepared samples and standards were mixed with chloramine T solution (Nacalai Tesque Inc., Japan) and incubated for 25 minutes at room temperature. The samples were then mixed with Ehrlich's solution and heated at 65° C. for 20 minutes to develop the colour. After samples were cooled on ice and centrifuged to remove precipitates, the optical density of each supernatant was measured at 560 nm. The concentrations of hydroxyproline were calculated from the hydroxyproline standard curve. Protein concentrations of kidney samples were determined using a BCA protein assay kit (Thermo Fisher Scientific, USA) and used to normalize the calculated hydroxyproline values. Kidney hydroxyproline contents were expressed as μg per mg protein.
The left kidney was fixed in Bouin's solution and embedded in paraffin. For PAS staining, sections were cut from paraffin blocks and stained with Schiff's reagent (FUJIFILM Wako pure chemical corporation, Japan) according to the manufacturer's instructions. To visualize collagen deposition, kidney sections were stained using picro-Sirius red solution (FUJIFILM Wako pure chemical corporation). For quantification of interstitial and medulla fibrosis area, bright field images in the corticomedullary region were captured using a digital camera (DFC295) at 200-fold magnification, and the positive areas in 5 fields/section were measured using ImageJ software (National Institute of Health, USA).

Irrelevant GPCR = assay: Transient-transfection CIFAT, irrelevant GPCR control (fixed and live cells); type: binding; conditions: cells expressing irrelevant GPCR
Experimental: (§1) Anti-LPAR1 antibodies of the invention were tested alongside commercially available anti-LPAR1 antibodies in the transient-transfection CIFAT assay for live cells (method 1.11) and in the transient-transfection CIFAT assay for fixed cells (method 1.11).
The results are shown in FIGS. 11 and 12, wherein the scale bar represents 100 μm.

LPAR1 [3] = target: T1, LPAR1; assay: LPAR1 binding affinity during discovery and affinity maturation, method not stated; parameters: expressed in transfected cells; conditions: stated in words
LPAR1 [4] = target: T1, LPAR1; assay: Transient-transfection CIFAT, live cells; type: binding; parameters: HA; expressed in transfected cells; host or cells: CHO-K1 (transient, PEI); conditions: 5 μg/mL or 20 μg/mL
Experimental: CHO-K1 cells are seeded in multi well plates at 20,000 cells per 200 μL full growth medium and incubated for 24 hours at 37° C. In a sterile tube, 0.0309 uL/well PEI is diluted into 10 uL/well transfection medium (DMEM supplemented with 2 mM L-glutamine and Penicillin-Streptomycin). The diluted PEI is added to 100 ng/well DNA, before mixing immediately and incubating the mixture for 10 minutes at room temperature. 200 μL/well full growth medium is added to the PEI-DNA mixture, then medium in wells is taken off and 200 ul full growth medium/PEI/DNA mixture is added in the wells of the adherent cell plate. The plate is incubated for 24 hours at 37° C. The medium is discarded and replaced with 200 μL full growth medium. The plate is incubated for 24 hours at 37° C. Medium is removed from the wells and the cells incubated with primary antibody at varying concentrations for 75 minutes at 37° C. After washing and cell fixation with 4% PFA, the binding of the antibodies is detected using a goat anti-human detection antibody, incubated for 1 hour at room temperature. Fluorescence at 488 nm is measured.
CHO-K1 cells were seeded in clear 96-well plates at 20,000 cells per 200 μL full growth medium and incubated for 24 hours at 37° C. The following day, in a sterile tube, 0.0309 uL/well PEI (Generon, MW 160,000) was diluted into 10 uL/well transfection medium (DMEM supplemented with 2 mM L-glutamine and Penicillin-Streptomycin). The diluted PEI was added to 100 ng/well DNA encoding the target protein (human LPAR1 (SEQ ID NO: 62) unless otherwise stated), before vortexing immediately and incubating the mixture for 10 minutes at room temperature. 200 μL/well full growth medium was added to the PEI-DNA mixture, then medium in wells was taken off and 200 ul full growth medium/PEI/DNA mixture was added in the wells of the adherent cell plate. The plate was incubated for 24 hours at 37° C. The next day, the medium was discarded and replaced with 200 μL full growth medium. The plate was incubated for 24 hours at 37° C. The following day, medium was removed from the wells and the cells incubated with primary antibody at varying concentrations for 75 minutes at 37° C. After washing and cell fixation with 4% PFA, the binding of the antibodies was detected using a goat anti-human Alexa Fluor 488 detection antibody (Invitrogen), incubated for 1 hour at room temperature. Fluorescence at 488 nm was measured using a BMG LABTECH ClarioStar plate reader and microscopy images were taken at 10× magnification.
as §1

LPAR1 [5] = target: T1, LPAR1; assay: Transient-transfection CIFAT, fixed/permeabilised cells; type: binding; parameters: HA; expressed in transfected cells; host or cells: CHO-K1 (transient, PEI); conditions: 5 μg/mL
CHO-LPAR1 cells = target: T2, CHO-LPAR1 cells (Homo sapiens, UniProt Q92633); assay: Competition CIFAT; type: binding; conditions: data not shown
T2 construct: expressed in transfected cells
T2 sequence (Q92633 whole entry): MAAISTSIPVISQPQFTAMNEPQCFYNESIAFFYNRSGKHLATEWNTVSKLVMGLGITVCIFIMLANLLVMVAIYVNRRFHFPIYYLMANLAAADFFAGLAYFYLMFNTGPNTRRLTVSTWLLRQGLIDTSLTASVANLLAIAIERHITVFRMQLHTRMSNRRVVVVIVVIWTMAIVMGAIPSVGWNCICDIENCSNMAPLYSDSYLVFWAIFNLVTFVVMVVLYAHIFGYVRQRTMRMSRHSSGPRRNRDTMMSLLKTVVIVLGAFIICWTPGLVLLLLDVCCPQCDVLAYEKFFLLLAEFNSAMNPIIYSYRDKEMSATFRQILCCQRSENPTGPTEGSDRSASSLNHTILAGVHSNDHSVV
Experimental: CHO-LPAR1 (GenScript) cells were seeded in black 96-well plates at 50,000 cells/200 μL full growth medium at and incubated for 24 hours at 37° C. The following day, the medium was removed from the wells and the cells incubated with 100 μg/mL primary antibody for 20 minutes at 37° C. After pre-incubation with the antibody, 10 μg/mL biotinylated competing antibody was added before incubation for 20 minutes at 37° C. After washing and cell fixation with 4% PFA, the binding of the antibodies was detected using an Alexa Fluor 488 streptavidin detection antibody (Molecular Probes), incubated for 45 minutes at 4° C. Fluorescence at 488 nm was measured using a BMG LABTECH ClarioStar plate reader and microscopy images were taken at 10× magnification.

T1 sequence (Q92633 whole entry): as above

Row | binding affinity for LPAR1 (LPAR1 [3]) | competition for the same epitope (CHO-LPAR1 cells) | Molecule | function (LPAR1 [1]) | kidney hydroxyproline [2] | Irrelevant GPCR cell staining (Irrelevant GPCR) | LPAR1 live cell staining (LPAR1 [4]) | LPAR1 fixed cell staining (LPAR1 [5])
1 | – | – | Antibody 7: Humanised variant of Antibody 1; VH SEQ ID NO: 33, VL SEQ ID NO: 34 (antibody, V domains shown) VH: QVQLVQSGSELKKPGASVKVSCKASGYTFTSSGISWVRQAPGQGLEWMGEILPRSGYTNYNEGFTGRFVFSADKSVSTAYLQISSLKAEDTAVYYCARDFGSSRYAMDYWGQGTTVTVSS VL: SIQMTQSPSSLSASVGDRVTITCQASQSVRYNVAWYQQKPGKAPKLLIYYASNRYTGVPSRFSGSGSGTDFTFTISSLQPEDIATYFCQQHYNSPLTFGGGTKLEIK | best in terms of expression, stability and function | – | – | – | –
2 | – | – | Antibody 9: Antibody 8 with HCDR2 mutation E61Q; VH SEQ ID NO: 35, VL SEQ ID NO: 39 (antibody, V domains shown) VH: QVQLVQSGSELKKPGASVKVSCKASGYTFTSSGISWVRQAPGQGLEWMGEILPRSGYTNYNQGFTGRFVFSADKSVSTAYLQISSLKAEDTAVYYCARDFGSSRYAMDYWGQGTTVTVSS VL: SIQMTQSPSSLSASVGDRVTITCQASQSVRYNVAWYQQKPGKAPKLLIYYASNRYTGVPSRFSGSGSGTDFTFTISSLQPEDIATYFCQHHYSSPLTFGGGTKLEIK | significantly enhanced the function | – | – | – | –
3 | minimal effect on affinity | – | Antibody 13: LCDR2 mutation T56D; VH SEQ ID NO: 37, VL SEQ ID NO: 38 (antibody, V domains shown) VH: QVQLVQSGSELKKPGASVKVSCKASGYTFTSSGISWVRQAPGQGLEWMGEILPRSGYTNYNQGFTGRFVFSADKSVSTAYLQISSLKAEDTAVYYCARDKGPSRYTMDYWGQGTTVTVSS VL: SIQMTQSPSSLSASVGDRVTITCQASQSVRYNVAWYQQKPGKAPKLLIYYASNRYDGVPSRFSGSGSGTDFTFTISSLQPEDIATYFCQHHYSSPLTFGGGTKLEIK | – | No observable difference | Irrelevant GPCR-No significant cell staining | LPAR1-Significant fixed and live cell staining | LPAR1-Significant fixed and live cell staining
4 | – | compete for the same epitope | Antibody 1: Hybridoma-derived antibody against LPAR1; VH SEQ ID NO: 23, VL SEQ ID NO: 24 (antibody, V domains shown) VH: QVQLQQSGAELARPGASVKLSCKASGYTFTSSGISWVKQRTGQGLEWIGEILPRSGYTNYNEKFKGKASLTADKSSSTAYMELRSLTSEDSAVYFCARDFGSSRYAMDYWSQGTSVTVSS VL: SIVMTQTPKLLPVSAGDRVTMTCKASQSVRYNVAWYQQKPGQSPKLLIYYASNRYTGVPDRFTGSGSGTDFTFTVRSVQVEDLAVYFCQQHYNSPLTFGSGTKLELR | – | – | – | – | –
5 | – | – | Antibody 4: Hybridoma related to Antibody 1 with LCDR3 mutation Q90H; VH SEQ ID NO: 29, VL SEQ ID NO: 30 (antibody, V domains shown) VH: QVQLQQSGAELARPGASVKLSCKASGYTFTSSGISWVKQRTGQGLEWIGEIYPRSGYTNYNEKFKGKASLTADKSSRTAYMELRSLTSEDSAVYFCARDYDNSRYALDYWGQGTSVTVSS VL: SIVMTQTPKFLPVSAGDRVTMTCKASQSVGYNVAWYQQKTGQSPKLLIYYASNRYTGVPDRFTGSGSGTDFTFTISSVQVEDLAVYFCQHHYSSPLTFGAGTKLELK | – | – | Irrelevant GPCR-No significant cell staining | LPAR1-Significant fixed and live cell staining | LPAR1-Significant fixed and live cell staining
6 | – | compete for the same epitope | 63D8: Further hybridoma antibody specific to LPAR1; VH SEQ ID NO: 113, VL SEQ ID NO: 114 (antibody, V domains shown) VH: EVKLLESGGGLVQPGGSLKLSCTASGFDFSRYWMSWVRQAPGKGLEWIGEINPSRSAINYSPSLKDKFIISRDNAKNTLYLQMSKVRSEDTALYYCARQGQRLRYGMDYWGQGTSVTVSS VL: DIVMTQSPNFMSTSVGDRVSVTCRASQDVRTAVAWYQQKPGRSPKLLIYWTSTRHTGVPDRFTGSGSGTDYTLTISSVQAADLALYYCQQHYGTPLTFGAGTNLELK | – | – | Irrelevant GPCR-No significant cell staining | LPAR1-Significant fixed and live cell staining | LPAR1-Significant fixed and live cell staining
